In patent publication US20060172374A1 (Novartis, published 2006):

Columns and labels:
HA-tagged NDR1 wild type = target: T1, HA-tagged NDR1 wild type (human, UniProt Q15208 1-465); assay: co-immunoprecipitation, summary of Example 8
T1 construct: also called HA-NDR1; HA-NDR

HA-NDR1 T74A = target: T2, HA-NDR1 T74A (human, UniProt Q15208 1-465); assay: co-immunoprecipitation of myc-hMOB1 with HA-NDR, OA-treated COS-1 cells
T2 construct: pCMV5_HA-NDR1 mutant expressed in COS-1 cells; also called T74A mutant
T2 sequence (Q15208 whole entry T74A): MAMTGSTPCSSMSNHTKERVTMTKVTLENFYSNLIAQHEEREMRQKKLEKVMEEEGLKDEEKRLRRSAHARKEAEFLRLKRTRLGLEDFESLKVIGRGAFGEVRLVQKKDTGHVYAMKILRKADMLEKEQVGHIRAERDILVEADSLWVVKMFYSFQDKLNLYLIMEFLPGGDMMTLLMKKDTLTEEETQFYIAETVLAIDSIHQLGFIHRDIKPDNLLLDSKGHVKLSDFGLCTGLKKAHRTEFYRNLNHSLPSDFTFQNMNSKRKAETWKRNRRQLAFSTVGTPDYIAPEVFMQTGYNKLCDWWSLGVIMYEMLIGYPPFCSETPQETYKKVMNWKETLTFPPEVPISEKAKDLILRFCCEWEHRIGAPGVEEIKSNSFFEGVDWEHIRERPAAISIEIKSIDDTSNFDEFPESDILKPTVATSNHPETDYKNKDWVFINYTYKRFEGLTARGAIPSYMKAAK

[1] = target: T3, HA-NDR N-terminal point mutant, tyrosine 31 to alanine (human, UniProt Q15208 1-465); assay: co-immunoprecipitation of myc-hMOB1 with HA-NDR point mutants, OA-treated COS1 cells
T3 construct: also called tyrosine 31 mutant
T3 sequence (Q15208 other isoform, or with tags, fused parts or gaps mutant limits assumed): as the sequence (Q15208 whole entry T74A) above, with Y31A, A74T counted along it

[2] = target: T4, HA-NDR N-terminal point mutant, arginine 41 to alanine (human, UniProt Q15208 1-465); assay: as above
T4 construct: also called arginine 41 mutant
T4 sequence (Q15208 other isoform, or with tags, fused parts or gaps mutant limits assumed): as the sequence (Q15208 whole entry T74A) above, with R41A, A74T counted along it

[3] = target: T5, HA-NDR N-terminal point mutant, arginine 78 to alanine (human, UniProt Q15208 1-465); assay: as above
T5 construct: also called arginine 78 mutant
T5 sequence (Q15208 other isoform, or with tags, fused parts or gaps mutant limits assumed): as the sequence (Q15208 whole entry T74A) above, with A74T, R78A counted along it

T1 sequence (Q15208 whole entry): as the sequence (Q15208 whole entry T74A) above, with A74T counted along it

binding result (HA-tagged NDR1 wild type): binds
binding result (HA-NDR1 T74A): no binding
binding result [1]: no binding
binding result [2]: no binding
binding result [3]: no binding
B1: myc-tagged hMOB1 (other, not shown: small tags and cut ends)
chain: MSFLFSSRSSKTFKPKKNIPEGSHQYELLKHAEATLGSGNLRQAVMLPEGEDLNEWIAVNTVDFFNQINMLYGTITEFCTEASCPVMSAGPRYEYHWADGTNIKKPIKCSAPKYIDYLMTWVQDQLDDETLFPSKIGVPFPKNFMSVAKTILKRLFRVYAHIYHQHFDSVMQLQEEAHLNTSFKHFIFFVQEFNLIDRRELAPLQELIEKLGSKDR
modifications: okadaic acid induced modification of MOB1 (not identified) in cells treated with okadaic acid
notes: also called myc-hMOB1; myc-mob1
